Measurements reported in US20260274958A1.

Target: VEGF-Fc (in house made by ImmuneOnco)
Sequence (chain, as listed by the source limits assumed): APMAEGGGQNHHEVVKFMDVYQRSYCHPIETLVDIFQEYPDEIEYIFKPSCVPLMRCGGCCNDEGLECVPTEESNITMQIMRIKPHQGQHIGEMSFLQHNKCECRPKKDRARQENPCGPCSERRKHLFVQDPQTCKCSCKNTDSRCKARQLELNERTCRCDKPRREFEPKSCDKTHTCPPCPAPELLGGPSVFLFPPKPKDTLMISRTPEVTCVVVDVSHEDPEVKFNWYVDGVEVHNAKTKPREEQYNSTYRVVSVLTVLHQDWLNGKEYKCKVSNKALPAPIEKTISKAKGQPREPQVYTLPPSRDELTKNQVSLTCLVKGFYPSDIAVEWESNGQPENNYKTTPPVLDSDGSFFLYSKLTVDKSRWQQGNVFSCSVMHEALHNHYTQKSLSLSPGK

- IC50 of inhibition of VEGF-Fc induced CD69 expression (MFI) on Jurkat-CVR cells: 2.38 nM
Substance: VEGFR1D2-Fc (Fc fusion)
